Source: the supplement of paper PMC9170038

System: MS2 coat protein
Experiment: apparent KD of MS2 coat protein; higher = weaker reporter binding
Details: Eterna round: R107
In short: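 Illumina sequencing clusters served as templates for on-chip transcription of the designed RNA switches. SNAP-549-labelled MS2 coat protein was then titrated in twofold steps from 0.7 or 1.5 nM to 3 µM, allowing 0.8–1.5 h per step at first and 10–20 min per step later. The buffer held 100 mM Tris-HCl pH 7.5, 80 mM KCl and 4 mM MgCl2, without or with constant ligand. Apparent KD is the median per design of normalised cluster binding-curve fits.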

[1] = input ligand: theophylline 20 uM
[2] = input ligand: theophylline 2 mM
[3] = input ligand: tryptophan 2.4 mM

Row | Sequence | apparent KD of MS2 coat protein (input ligand: arginine 13.2 mM) [nM] | apparent KD of MS2 coat protein [1] [nM] | apparent KD of MS2 coat protein [2] [nM] | apparent KD of MS2 coat protein [3] [nM] | apparent KD of MS2 coat protein (input ligand: none) [nM]
1 | CUAUGCAGGUCGGCCGCCACUACACACAUGAGGAUCACCCAUGUAGUUACUGGGUGAAGUGGCAGUAGGACCGGGACCUGCAUAU [Brourdmod07] | 273 | 534 | 799 | – | –
2 | AAUAAGUACUUUGAUACCAGCCUGCCAUCAUGCUAAUUUACAUGAGGAUCACCCAUGUUAGGCCCUUGGCAGCAAAGUGCAAUAA [XTheo B #1] | 12.8 | 15.8 | – | 12.4 | –
3 | CCGUCACAUGAGGAUCACCCAUGUGCGGAAGGAGCGGACGACAGUCCAGGUAGGUCGCCGUAUAGCCAAUGACCAGCAGUGUCGG [Betesotiqu] | 5.9 | 20.8 | 9.93 | 13.9 | 10.6
4 | CGGUUUGUGAUGGAUACCAGCAGAGUGACUGUUUAUCCUGACAUGAGGAUCACCCAUGUGUGCCCUUGGCAGCUGUUGUGGGCUG [8.aA] | 66.3 | 111 | – | 65.7 | –
5 | AGCGACAUGCGUGAUACCAGCUACAUGAGGAUCACCCAUGUACGUCAGAAAUGACUGUGUAGCCCUUGGCAGCAUAAUGCAUGUC [Exclusion - Theophylline B (Freestyle 19)] | 38.3 | 60.6 | – | 44 | –
6 | CUAUAAAUAGCGGCCGCCACUUACUCAUGAGGUAACAACAUGAGGAUCACCCAUGUUUGAGGAUCAAGGACCGGGCUAUUUAUAG [AstrosSSTryB#8] | 23.7 | 32.8 | 36.1 | – | –
7 | ACAUGAGGAUCACCCAUGUUGCUGACAGAAGGAGCGUGAUUAAGCACAGGUAGGUCGCUGUUGGUAUCGAGCGUUAGCUCGAUAC [SSArg A #8] | 34.6 | 41.7 | 33.7 | 50 | 32
8 | UCGACAGUGAACGAUACCAGCGUCACGUGGCCGGUGGUCACAUGAGGAUCACCCAUGUAACGCCCUUGGCAGCGUGCACGUAUCA [Latedirius] | 20.5 | 46.3 | – | 20.5 | –
9 | UGUCAUGGAAACAUGACAGGUCUUACCGGUCGAGGACCGGUACGGCCGCCACUCGAUUGGUGGCACAUGAGGAUCACCCAUGUUA [SS Tryp A #16] | 21.8 | 47.3 | 34.3 | – | –
10 | AGUACAUGAGGAUCACCCAUGUGCCGGUAACGAGGACCGGUACGGCCGCCACUCGAUGUACCUCAAUUUGAUUGAGAUAAGAAAA [Anorbian] | 34.2 | 57.6 | 47.4 | – | –
11 | AGAUGUAGCGGAAGGAGCGUCAUGAGGAUCACCCAUGACUCCCGUUGUGGGAGUUCCUUAGGUCAGGUAGGUCGCCGUUACGUCA [Omei Arg B SS B v5] | 91.4 | 563 | 596 | 426 | 390
12 | AAUUCCUCACAUGAGGAUCACCCAUGUGAAGGAGCGCCGAAUAAGGCAGGUAGGUCGCACAUGGAAACCUCUACGAAAGUAGUAA [XArg-A 3 NuV1V2] | 16.5 | 20.8 | 18.2 | 15.6 | 15.8
13 | ACAUGAGGAUCACCCAUGUGUCCUCGAAAACGAGGACCGGUACGGCCGCCACUCGAAAUAAGCUGUUGACGAAAAGUCAGCAGCA [Mat - Exclusion - Trytophan A - D21] | 74.5 | 173 | 152 | 316 | 126
14 | CCUAUGCAGUCGGCCGCCACUGAACAUGAGGAUCACCCAUGUAAUUAAAAUUAUGAUCCUGAAAUCAGGACCGGGACUGUAUAGG [Ex Tryptophan B 5] | 28.6 | 165 | 431 | – | –
15 | AAGGAAAAGGCGGCCGCCACUGGAAAGGCGAAAGCCAAGAAAACAUGAGGAUCACCCAUGUCAUGUAGGACCGGGCCAAAAGGAA | 10 | 26.3 | 14.7 | 23.7 | 21.9
16 | GGUUACUCUACGGCCGCCACUGAAAAGUAAAUAUUAAUGUACAUGACAUGAGGAUCACCCAUGUACAGGACCGGGUAGUGUAACC [Tryptophan B 13] | 64.8 | 102 | 108 | – | –
17 | CACAUGAGGAUCACCCAUGUCUGAACUGAAGGAGCGCUAAACAAGGCAGGUAGGUCGCGGAAUUUUGUGUGCAUAUGCACAUGGG [9.O] | 19.7 | 22.3 | 24.6 | 25.8 | 28.2
18 | AUAACAUGAGGAUCACCCAUGUAACCUGAAGGAGCGGACGAAAGUCCAGGUAGGUCGCAGGACUCCUUCAACAUGGGAGAGGGAG [SSArg-A #27 NuPack the Brourd] | 120 | 131 | 152 | 124 | 99
19 | AGCACAUGAGGAUCACCCAUGUGUGGGUACCGAGGACCGGUACGGCCGCCACUCGCAGGACAUGAGGAUCACCCAUGUGCCGCCG [SSTA DOUBLE!!! :-D #7] | 19.7 | 33.2 | 41.2 | 43.4 | 30.5
20 | GAGCUGAUGUAGAGAAUAAAUAUAAGAGAUACCAGUACAGAAAUGUACCCUUGGCAGCUCAACUUUACAUGAGGAUCACCCAUGU [Ex Theophylline A 18] | 14.1 | 16.7 | – | 13.9 | –
21 | AGAGCAUUGACGGCCGCCACUCAUGUCACAUGAGGAUCACCCAUGUGAUGGGUAAUCGCCCGGUUGAGGACCGGGUCAAUGCUCA [Omei Tryp SS B v3] | 6.69 | 16.9 | 8.46 | 10.7 | 6.99
22 | GGACGAAGUUUCUUGUCCGGUCGCUGAGAAGGAGCGCGGUAAACCGCAGGUAGGUCGCUCAGAAAUACAUGAGGAUCACCCAUGU [Orsosous] | 17.1 | 27.2 | 21.4 | 21.5 | 21.1
23 | UGGUGUAGGGUAAAUAGGAUUAGUACAGAAGGAGCGCGAAUAAACGCAGGUAGGUCGCUGGAAUAACAUGAGGAUCACCCAUGUC [Same State Arginine A GF 26] | 19.6 | 30.6 | 26.2 | 27.8 | 24.8
24 | AAAUGUACGUCGGCCGCCACUGCGCUGAAGACAGUCACAUGAGGAUCACCCAUGUACGACAAGGGUAGGACCGGGAUGUGAGGGU [Rate] | 45.1 | 130 | 217 | – | –
25 | AGUCUUAUAGGAAGGAGCGCAAUCAUCACAUGAGGAUCACCCAUGUCAAGGUGAGAGUCAUUGCAGGUAGGUCGCCUAACUAAGA [Same State - Arginine B (Freestyle 9)] | 150 | 173 | 251 | 213 | 241
26 | GAUAGAACAAAAGUUUUAUCAGUGGGUGAACGAGGACCGGUACGGCCGCCACUCGGACAUGAGGAUCACCCAUGUCCAUGUGAAA [AstrosExyTryA#17] | 12.6 | 17.1 | 19.5 | 43.9 | 18.1
27 | GCAUCCUAGUCGGCCGCCACUGGUACGAACACCUUCACCCGUGUGCACAUGAGGAUCACCCAUGUUAGGACCGGGACUAGGAUGC [SSTryp B #21] | 10.3 | 11 | 8.45 | – | –
28 | GCAGACAUGAGGAUCACCCAUGUACUUGGGCGAGGACCGGUACGGCCGCCACUCGUAGACUUGACGAGGAAAUGUUCUCGCAGGG [theeternabot_sameState_MS2_Trp_A_24] | 22.1 | 31.6 | 28.4 | – | –
